Laboratory results taken from patent US20150274802A1.
One block for each binder: values may come before it. Square brackets hold non-standard residues; d marks the D form. Primed or numbered codes have the meaning given here. Ends that are not written are not given here. PEG4″ = 4-unit polyethylene glycol spacer; PEG8″ = 8-unit polyethylene glycol spacer

Experiments:
Test in all cases: cell-based or functional assay
[1] = target: type A insulin receptor, P06213
[2] = target: type B insulin receptor, P06213
type A insulin receptor = type A insulin receptor (UniProt P06213)
type B insulin receptor = type B insulin receptor (UniProt P06213)
[3] = target: human IGF-1 receptor (human) (UniProt P08069)

Binder: GPEHLCGAHLVDALYLVCGDRGFYFNKKGIVDECCHRSCDLRRLENYCN (ligand) [DP3(SC): B^1(H5,10Y16L17K29)29-A^1(H8,N18,21)]
- % activity in vitro [1]: 0.03%

B4: B^1(H5,10Y16L17A24)25-C^1-A^1(H8N18,N21) (ligand)
chain: GPEHLCGAHLVDALYLVCGDRGAYGYGSSSRRAPQTGIVDECCHRSCDLRRLENYCN
- % (potency at the receptor, assay not named) [3]: 0.3%
- % (potency at the receptor, assay not named) (type A insulin receptor): 0.1%
- % (potency at the receptor, assay not named) (type B insulin receptor): 0.4%

B5: B^1(H5,10Y16L17)25-C^1-A^1(T8N18,21) (ligand)
chain: GPEHLCGAHLVDALYLVCGDRGFYGYGSSSRRAPQTGIVDECCTRSCDLRRLENYCN
- % (potency at the receptor, assay not named) [1]: 20.4%
- % (potency at the receptor, assay not named) [2]: 8.4%

B6: B^1(A5H10Y16L17)25-C^1-A^1(H8N18N21) (ligand)
chain: GPEALCGAHLVDALYLVCGDRGFYGYGSSSRRAPQTGIVDECCHRSCDLRRLENYCN
- % (potency at the receptor, assay not named) [3]: 2.5%
- % (potency at the receptor, assay not named) (type B insulin receptor): 5.7%

B7: GE5W-B^1(A5H10Y16L17)25-C^1-A^1(H8N18N21) (ligand)
chain: GEEEEEWGPEALCGAHLVDALYLVCGDRGFYGYGSSSRRAPQTGIVDECCHRSCDLRRLENYCN
- % (potency at the receptor, assay not named) [3]: 0.3%
- % (potency at the receptor, assay not named) (type A insulin receptor): 8.6%
- % (potency at the receptor, assay not named) (type B insulin receptor): 2.3%

B10: DP3(TC): B^1(H5,10Y16L17K29)29:A^1(H8,N18,21) (ligand)
chain 1: GPEHLCGAHLVDALYLVCGDRGFYFNKK
chain 2: GIVDECCHRSCDLRRLENYCN
- % activity in vitro [1]: 160%
- % activity in vitro [2]: 33.1%

B13: DP8Mut3KA14: B^1(H5,10Y16L17R29)30-C^1des9-12-A^1(H8,K14,N18,21) (ligand)
chain: GPEHLCGAHLVDALYLVCGDRGFYFNKRTGYGSSSRRGIVDECCHRSCDLKRLENYCN
- % activity in vitro [1]: 132%
- % activity in vitro [2]: 12.6%

Further lines, results first:

- % Insulin Activity (in vitro, assay not named) [1]: 14.8%
- Phosphorylation (EC50), % IR-A [1]: 14.8%
- Phosphorylation (EC50), % IR-B [2]: 2%
Binder: Ac-GPEHLCGAELVDALYLVCGDRGFY[PEG8″]K(PEG 20 kDa)[PEG4″]GIVDECCFRSCDLRRLENYCN (ligand, cysteine pairing not given here) [MIU-56: C8-PEG20K B^1(H5,Y16,L17)25-PEG8-K-PEG4-A^1(N18,N21)]

- % activity in vitro (type A insulin receptor): 0.1%
Binder: GPEHLCGAHLVDALYLVCGDRGFYFNKKGIVDECCHRSCDLRRLENYCN (ligand) [MIU-77 mono-20K-SC: B1-20K B^1(H5,10Y16L17K29)29-A^1(H8N18,21)]

- % activity in vitro (type A insulin receptor): 8.2%
- % activity in vitro (type B insulin receptor): 3.2%
B1: MIU-78 mono-20K-TC: B1-20K B^1(H5,10Y16L17K29)29:A^1(H8N18,21) (ligand)
chain 1: GPEHLCGAHLVDALYLVCGDRGFYFNKK
chain 2: GIVDECCHRSCDLRRLENYCN

- % activity in vitro [1]: 6.4%
- % activity in vitro [2]: 2.1%
B2: di-10K-TC: B1,A14-10K B^1(H5,10Y16L17R29)29:A^1(H8K14N18,21) (ligand)
chain 1: {PEG 10 kDa}-GPEHLCGAHLVDALYLVCGDRGFYFNKR
chain 2: GIVDECCHRSCDLK(PEG 10 kDa)RLENYCN
modifications: ends and bridges not checked

- % (potency at the receptor, assay not named) [3]: 3.2%
- % Insulin Activity (in vitro, assay not named) [3]: 3.2%
- % (potency at the receptor, assay not named) (type A insulin receptor): 61.4%
- % Insulin Activity (in vitro, assay not named) (type A insulin receptor): 61.4%
- % (potency at the receptor, assay not named) (type B insulin receptor): 17.4%
- % Insulin Activity (in vitro, assay not named) (type B insulin receptor): 17.4%
B3: MIU-35: B^1(H5,10Y16L17)25-C^1-A^1(H8N18,21) (ligand)
chain: GPEHLCGAHLVDALYLVCGDRGFYGYGSSSRRAPQTGIVDECCHRSCDLRRLENYCN

- % (potency at the receptor, assay not named) [1]: 2.1%
- % (potency at the receptor, assay not named) [2]: 0.7%
B8: GE5W-B^1(H5,10Y16L17)25-C^1-A^1(A1H8N18,21) (ligand)
chain: GEEEEEWGPEHLCGAHLVDALYLVCGDRGFYGYGSSSRRAPQTAIVDECCHRSCDLRRLENYCN

- % activity in vitro [1]: 1.7%
- % activity in vitro [2]: 0.2%
B9: MIU-79 di-10K-SC: B1,A14-10K B^1(H5,10Y16L17R29)30-C^1des9-12-A^1(H8,K14,N18,21) (ligand)
chain: {PEG 10 kDa}-GPEHLCGAHLVDALYLVCGDRGFYFNKRTGYGSSSRRGIVDECCHRSCDLK(PEG 10 kDa)RLENYCN
modifications: ends and bridges not checked

- % (potency at the receptor, assay not named) [1]: 4.5%
- % Insulin Activity (in vitro, assay not named) [1]: 3.1%
- Phosphorylation (EC50), % IR-A [1]: 4.5%
- % (potency at the receptor, assay not named) [2]: 1.1%
- % Insulin Activity (in vitro, assay not named) [2]: 1.1%
- Phosphorylation (EC50), % IR-B [2]: 1.1%
B11: MIU-57: B1-PEG20K MIU-35 (ligand)
chain: {PEG 20 kDa}-GPEHLCGAHLVDALYLVCGDRGFYGYGSSSRRAPQTGIVDECCHRSCDLRRLENYCN
modifications: ends and bridges not checked

- % activity in vitro [1]: 97.5%
- % activity in vitro [2]: 16.7%
B12: MIU-43 DP8Mut3: B^1(H5,10Y16L17R29)30-C^1des9-12-A^1(H8,N18,21) (ligand)
chain: GPEHLCGAHLVDALYLVCGDRGFYFNKRTGYGSSSRRGIVDECCHRSCDLRRLENYCN
